A short description of the data set: protein stability index of a GFP-peptide fusion (yeast GPS) (PSI 1-4); higher = more stable; sorted into four equal gates, so the index is relative within each strain. The method, boiled down: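 Peptides tiling yeast proteins in 17-residue segments were fused downstream of GFP, with Cherry expressed from the same plasmid. As a pooled library in yeast, mid-log cultures grown in leucine-free medium were sorted into four equal gates by GFP/Cherry fluorescence ratio. Gate plasmids were PCR-amplified and Illumina-sequenced, and barcodes linked reads to strains. Each peptide received a protein stability index equal to the sum of each gate's read frequency times its gate number.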

Our source for the protein stability index values is the supplement of paper PMC9732359.

± gives the uncertainty stated by the source.

For the sequence ENDHERGFFHLNEALLQ [CSN12], the protein stability index came to 3.08 ± 0.075 (doa10∆), 2.91 ± 0.062 (pdr5∆), 3.28 ± 0.09 (san1∆) and 3.06 ± 0.082 (ubr1∆).
For the sequence PMLMANNDVFTIGPYRA [SSN3], the protein stability index is, setting by setting: (doa10∆) 3.04 ± 0.07; (pdr5∆) 3.3 ± 0.082; (san1∆) 3.13 ± 0.072; (ubr1∆) 3.14 ± 0.058.
On to LSKVFSDVLFEFTKINT [YJL039C/NUP192], for which the protein stability index was 2.87 ± 0.11 (doa10∆), 2.5 ± 0.068 (pdr5∆), 2.09 ± 0.13 (san1∆) and 2.94 ± 0.051 (ubr1∆).
FMAFINACAKYGRDDME [ISW2]: the protein stability index (doa10∆) is 2.77 ± 0.2.
Turning to LLEETQAKLKKNVETLE [SMC4], the protein stability index was determined as 3.39 ± 0.092 (doa10∆), 3.18 ± 0.085 (pdr5∆), 3.31 ± 0.08 (san1∆) and 3.51 ± 0.071 (ubr1∆).
In the case of NPYNIVPQGKIVALTNA [SMC3], the protein stability index by setting is: (doa10∆) 2.77 ± 0.14; (pdr5∆) 2.78 ± 0.086; (san1∆) 2.82 ± 0.12; (ubr1∆) 3.11 ± 0.078.
For the sequence LNKSDLLDKYGKTGLSN [YML103C/NUP188], the protein stability index is, setting by setting: (doa10∆) 3.38 ± 0.12; (pdr5∆) 3.17 ± 0.13; (san1∆) 3.44 ± 0.058; (ubr1∆) 3.38 ± 0.075.
On to ERSSKRLAKKPSMKKIK [SIR3], for which the protein stability index was determined as 3.18 ± 0.08 (doa10∆), 3.12 ± 0.084 (pdr5∆), 3.06 ± 0.057 (san1∆) and 3.06 ± 0.079 (ubr1∆).
As for RDRKLITDKGTVDGRLY [YJL039C/NUP192], the protein stability index by setting is: (doa10∆) 3.16 ± 0.12; (pdr5∆) 3.22 ± 0.074; (san1∆) 3.19 ± 0.071; (ubr1∆) 3.17 ± 0.076.
With AAGYGKILGKGRIPNVP [RPL28], the protein stability index reads like this: (doa10∆) 3.46 ± 0.087; (pdr5∆) 3.2 ± 0.075; (san1∆) 3.46 ± 0.066; (ubr1∆) 3.48 ± 0.05.
On the same counts, the results for KFPETSYPILNESSTFL [SIN4] are 2.47 ± 0.04, 2.71 ± 0.034, 2.58 ± 0.042 and 2.64 ± 0.032.
On the same counts, the results for SLFTYFREAIVATEPLL [PRP8] are 1.82 ± 0.048, 1.83 ± 0.051, 2.73 ± 0.063 and 1.97 ± 0.041.
Regarding ANIELTWAEGTFEQFKD [RPC37], the protein stability index runs as follows: (doa10∆) 3.25 ± 0.12; (pdr5∆) 3.18 ± 0.076; (san1∆) 3.31 ± 0.16; (ubr1∆) 3.32 ± 0.093.
Regarding NNIEENLRLLNSIDSTS [ECM29], the protein stability index runs as follows: (doa10∆) 3.21 ± 0.06; (pdr5∆) 3.33 ± 0.057; (san1∆) 3.18 ± 0.044; (ubr1∆) 3.21 ± 0.046.
Regarding GRSRDGGLRFGEMERDC [RPB2], the protein stability index is, setting by setting: (doa10∆) 2.86 ± 0.29; (san1∆) 2.83 ± 0.17.
As for QQLDSFNQFVDYTLQDI [RPB2], the protein stability index is, setting by setting: (doa10∆) 2.48 ± 0.094; (pdr5∆) 2.64 ± 0.1; (san1∆) 2.75 ± 0.052; (ubr1∆) 2.43 ± 0.086.
The corresponding values for CYFRDFEYCRIDGSTSH [ISW2] are 2.51 ± 0.071, 2.5 ± 0.079, 2.48 ± 0.069 and 1.88 ± 0.042.
Turning to QKTQELNAKYQSLGLDD [ISW2], the protein stability index runs as follows: (doa10∆) 3.31 ± 0.061; (pdr5∆) 3.26 ± 0.048; (san1∆) 3.17 ± 0.042; (ubr1∆) 3.31 ± 0.052.
In the case of NNPKIQTKDSVKEIVLP [IRR1], the protein stability index reads like this: (doa10∆) 3.17 ± 0.07; (pdr5∆) 2.94 ± 0.077; (san1∆) 3 ± 0.059; (ubr1∆) 3.11 ± 0.051.
Sequence VQISNIPDIGDLPDTEG [PRP8] had a protein stability index (doa10∆) of 3.24 ± 0.07, a protein stability index (pdr5∆) of 3.29 ± 0.059, a protein stability index (san1∆) of 3.2 ± 0.049 and a protein stability index (ubr1∆) of 3.23 ± 0.043.
Sequence SSFGSESLTFNEFQLQW [SWI1] registered a protein stability index (doa10∆) of 2.98 ± 0.066, a protein stability index (pdr5∆) of 2.84 ± 0.056, a protein stability index (san1∆) of 2.56 ± 0.054 and a protein stability index (ubr1∆) of 3.02 ± 0.046.
Take YKYKMRYVYAHFPINVN [RPL9A]: the protein stability index reads like this: (doa10∆) 2.29 ± 0.051; (pdr5∆) 2.29 ± 0.053; (san1∆) 2.08 ± 0.078; (ubr1∆) 2.51 ± 0.041.
Regarding EKVFTQGLNILEWLENP [FAS1], the protein stability index came to 3.18 ± 0.12 (doa10∆), 2.98 ± 0.081 (pdr5∆), 3.44 ± 0.054 (san1∆) and 3.17 ± 0.046 (ubr1∆).
Take TFVVEQLIKQSIKNNVA [SNU114]: the protein stability index (ubr1∆) was 2.38 ± 0.27.
Consider TSPSYSPTSPSYSPTSP [RPO21], for which the protein stability index runs as follows: (doa10∆) 2.64 ± 0.045; (pdr5∆) 3 ± 0.038; (san1∆) 2.77 ± 0.033; (ubr1∆) 2.81 ± 0.03.
For NKLEKLNSLLTYIKSEI [SMC4], the protein stability index reads like this: (doa10∆) 2.73 ± 0.061; (pdr5∆) 2.32 ± 0.045; (san1∆) 2.66 ± 0.057; (ubr1∆) 2.87 ± 0.036.
For the sequence AVKYGLNHVVSLIENKK [RPL8B], the protein stability index turned out to be 2.25 ± 0.079 (doa10∆), 2.37 ± 0.077 (pdr5∆), 2.26 ± 0.089 (san1∆) and 2.01 ± 0.047 (ubr1∆).
On the same counts, the results for LFLNNFVSRIPIMFQDF [IRR1] are 1.97 ± 0.057, 2.04 ± 0.048, 1.7 ± 0.067 and 1.85 ± 0.033.
On to QQLVDSEKRLDHFIHLR [SNF12], for which the protein stability index was found to be 2.3 ± 0.12 (doa10∆), 2.75 ± 0.07 (pdr5∆), 2.56 ± 0.078 (san1∆) and 2.68 ± 0.076 (ubr1∆).
For the sequence ELKINLPLTEHKSPNLS [SRB4], the protein stability index worked out at 2.93 ± 0.077 (doa10∆), 3.17 ± 0.051 (pdr5∆), 2.87 ± 0.041 (san1∆) and 2.98 ± 0.058 (ubr1∆).
The corresponding values for VTYSDVGGCKDQIEKLR [RPT1] are 3.51 ± 0.16, 3.67 ± 0.2, 2.92 ± 0.25 and 3.39 ± 0.12.
As for EHGYQSRGFEVMYNGHT [RPB2], the protein stability index is 2.92 ± 0.15 (doa10∆), 2.62 ± 0.18 (pdr5∆), 2.88 ± 0.15 (san1∆) and 2.61 ± 0.19 (ubr1∆).
As to LSRNGKPVMEVTSSFFY [FAS1], the protein stability index reads like this: (doa10∆) 3.04 ± 0.077; (pdr5∆) 2.99 ± 0.089; (san1∆) 2.79 ± 0.086; (ubr1∆) 2.6 ± 0.073.
As for NATVVDSFKYEPLAPGN [YLR335W/NUP2], the protein stability index is, setting by setting: (doa10∆) 2.95 ± 0.057; (pdr5∆) 3.02 ± 0.054; (san1∆) 2.98 ± 0.053; (ubr1∆) 2.94 ± 0.051.
AGNLITTPEINNFIVER [SRP68]: the protein stability index is, setting by setting: (doa10∆) 2.79 ± 0.067; (pdr5∆) 3.07 ± 0.061; (san1∆) 3.18 ± 0.061; (ubr1∆) 2.82 ± 0.049.
Turning to PGHVNFMDETAVALAAS [SNU114], the protein stability index worked out at 2.4 ± 0.062 (doa10∆), 2.7 ± 0.1 (pdr5∆), 2.29 ± 0.073 (san1∆) and 2.34 ± 0.066 (ubr1∆).
For the sequence YSIEMKPYSGKLLKVCL [ECM29], the protein stability index amounted to 2.62 ± 0.077 (doa10∆), 2.33 ± 0.098 (pdr5∆), 2.51 ± 0.076 (san1∆) and 2.83 ± 0.069 (ubr1∆).
Turning to DPQPFLKHVLQLIFRQQ [SNU114], the protein stability index was 1.38 ± 0.042 (doa10∆), 2.02 ± 0.052 (pdr5∆), 2.44 ± 0.064 (san1∆) and 2.51 ± 0.038 (ubr1∆).
As for DTTVPKRLGPKRANNIR [RPS6A], the protein stability index reads like this: (doa10∆) 3.46 ± 0.11; (pdr5∆) 3.68 ± 0.11; (san1∆) 3.19 ± 0.051; (ubr1∆) 3.37 ± 0.063.
